Measurements reported in the nanobody polyreactivity screen of Harvey et al. (2022).

Assay: yeast display, Sf9 membrane polyspecificity reagent, FACS + sequencing; frameworks hold sequencing errors
Procedure, shortened: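 Sorting gates, low and high (top ~1%), were placed on anti-HA fluorescence to track expression and on streptavidin fluorescence to track reagent binding. A clone's polyreactivity label is taken from the gate it came out of. The reagent was 10% biotinylated, detergent-solubilized Sf9 membrane, applied for 1 hour at 4 °C to galactose-induced yeast display cells.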

Row | Sequence | polyreactivity (PSR sort gate)
1 | QVQLQESGDGLVQAGGSLRLSCAASGTIFTPHQMGWYRQAPGNEREFVATIDYGSSTNYADSLKGLFTISRDNAKNTMYPQMNSLKPEDTAVYYCANYYWGQGTQVTVSS | low polyreactivity
2 | QVQLQESGGGKVHAGGSLRLSCAASGSISYASGMVWYRQAPGKEREFVASIDPGAITNYADSVKGRFTNSHDNAKNTVYLQMNSLKPEDTAVYYCAARVSTTDSHGYWGQGTQVTVSS | high polyreactivity
3 | QVQLQESGGGLEQAGGSLRLSCAASGTNTVLYKMGWFRQAPGKEREFVASINFGTSTYYADSVKGRFTDSRDSAINTVFLHMNSLKPEDTSVYYCAAAYRWQDFYRYWGQGTQVTVSS | low polyreactivity
4 | QVQLQESGGGLEQAGGSLRLSCAASGYISDIGTMGWYRQAPGKEREFVATLVVGSTTNYADSVKGRFTISRDNAKNTVYLQPESGRYRGVLLRGWLLAVGKFTYWGQGTQETVSS | low polyreactivity
5 | QVQLQESGGGLEQAGGSLRLTCAASGNISVTGFMGWYRQEPGKEREIVASIGIGGTTYYADSVKGRFYISRDNAKNTVYLQMNSLKPEDTAVYYCADRYLYYAYSYWCQGTQVTVSS | low polyreactivity
6 | QVQLQESGGGLLQVGGSLRLSCAASGTIFIYGFLGWNRQAPGKERELVASINLGGITNYADSVKGRFTISRDNAKKTVYLQMISLKPEDTAVYYCAAYVVTGQNYGYWGQGTQVTVSS | low polyreactivity
7 | QVQLQESGGGLMQAGGSQRLSCAASGSISYYSDMGWYRQAPGKEREFVAGIGYGTTTNYADSVKGRFTTSRDNAKKTVYLQMISIKPEDTAVYYCAAYQGNGYEFYYWGQGTQVTVRS | low polyreactivity
8 | QVQLQESGGGLVKAGGSLRLSCAASGNISPRDAMGWYRQAPGEERDLVASNAYSAITYYADCVKGRYTISRDNAKNTVYLQINSLKPEDTEVYYCAVYQFTYPVFPAYWGQGTQVTVSS | low polyreactivity
9 | QVQLQESGGGLVKAGGSLRLSCAASGNISPRDAMGWYRQAPGEERDLVASNPYSAITYYADGVKGRYTISRDNAKNTVYLQMNSLKPEDTEVYYCAVYQFTYAVFPAYWGQGSQVTVSS | low polyreactivity
10 | QVQLQESGGGLVLAGGSLRLSCAASGSISAQAYMGWDRQAPGKEREHVAGINYGDNTNYADSVKGRFTISRDNEHRVSADEQPETGRYRGVLLRGFLELFYYYIYWGQGTQVTVSS | high polyreactivity
11 | QVQLQESGGGLVLAGGSLRLSCSASGNISVYGSMGWYRQSPGKEREFVATIDPGTNTNYADSVKDRFTISRDYAKNSVYLQMNSLKPEDTAVYYCAVEAGSDWPYRYWGQGTQVTVSS | low polyreactivity
12 | QVQLQESGGGLVQACGSLCLICAASSYFSTYYSMGWYRKAPSKGRELVAAIDSGSSTNYADSVEGRFTISRDNAKNTVYLQMISLKPGDTAVYYCAAPWGHLVVHPYRGQGTQVTVSS | high polyreactivity
13 | QVQLQESGGGLVQACGSLRLSCAASGYIFSHQYMGLYRQAPGKERELVASISPGATTNYADSVKGRLTISRDNAKNTVYLQMNSLKPEDTAVYYYAVYQILDRRLSYWGQGTQVTVSC | high polyreactivity
14 | QVQLQESGGGLVQAGDSQRLSCAASGNIFRFTDRGWYRQAPGKERELVAAINAGSTTYYADSVKGRFTISRDNAKNTVYLQMNSLKPEDTAVYYCAVYYLGSGTFGYWGQGAQVTVSS | high polyreactivity
15 | QVQLQESGGGLVQAGGCLSCTASGTIFGQGDMGWYRPAPGKERELVATINDGASTYYADSVKGRFTISRDKAKNTVYLQKNSLNQDDTAVYYCAVFTDITTYFGYWGQGTQVTVSS | low polyreactivity
16 | QVQLQESGGGLVQAGGGLRLSCAASGSILNQAPMGWYRQAPGKERELVATINEGSITNYADSVKGRFTISRDNAKNTVYLQMNSLKPEDTAVYYCAVNKYIGLDYHYWGQGTQVTVSS | low polyreactivity
17 | QVQLQESGGGLVQAGGGLRLSCAASGTISGPHVMGWYRQAPGKEREFVAAINVGANTYYADNVKGRFTISRDNAKNTVYLQMNSLNPEDTAVYYCAAVYYGDIGHEYWGQGTQVTVSC | low polyreactivity
18 | QVQLQESGGGLVQAGGSLCLSCAASSYFSTYYSMGSYRKAPSKGRELVAAIDSGSSTNYADSVEGRFTISRDNAKNTVYLQMNSLKPGDTAVYYCAARDDARRGFYYWGQGTQVTVSS | high polyreactivity
19 | QVQLQESGGGLVQAGGSLLSCAASGTISWVDEMGWYRQAPGNERELVAGIAGGGNTNYADSVKGRFTISRDNAKNTVYLKMNSLDTAVYYCAVVGFGRGTHIYWGQGTQVTVSS | high polyreactivity
20 | QVQLQESGGGLVQAGGSLLSCAASGTISWVDEMGWYRQAPGNERELVAGIAGGGNTNYADSVKGRFTISRDNAKNTVYLLMNSLDTAVYYCAVVGFGRGNHIYWGQGTQVTVSS | high polyreactivity
21 | QVQLQESGGGLVQAGGSLLSCAASGTISYYREMGWYRQSPGKERELVAGIGVGTITYYADSVKGRFTISRDNAKNTVYLQMNSLKPEDTAVYYCAAHIDGNDSNAYWGQGTQVTVSS | low polyreactivity
22 | QVQLQESGGGLVQAGGSLRLICAASGYISSWYPMGWYRQAPGKEREFVGTIAPGATTYYADSVKGRFTIIRDYEKNTVYLQMNSLKPEDTAVYYCAAGPENNDFYSYWGQGTQVTVSS | low polyreactivity

Row | Sequence | polyreactivity (PSR sort gate)
23 | QVQLQESGGGLVQAGGSLRLRCAASGTISDRAGMGWYRQAPAKNAIVATIDRGTNTNYADSVKGRFTISRDNAKNTVYLQMNSLKPEDTAVYNCAADGRYYIYLDYWGQGTQVTVSS | low polyreactivity
24 | QVQLQESGGGLVQAGGSLRLSCAASGNIFEADIMGWNHQAQGKERELVASITDGGSTNYADSVKGRFTINRDNAKNNVYLQMNSLKPEDTAVYYCAAFAYPDIPTYFDYDIFTYWGQGTQVTVSS | high polyreactivity
25 | QVQLQESGGGLVQAGGSLRLSCAASGNIFEADIMGWYHQAQGKERELVASITDGGSTNYADSVKGRFTINRDNAKNNVYLQMNSLKPADTAVYYCAAIAYPDIPTYFDYDSDYFYWGQGTQVTVSS | high polyreactivity
26 | QVQLQESGGGLVQAGGSLRLSCAASGNIFLGDTMGWYRQAPGKEREFVAAIARGGNPYYADSVKGRFTISRNNANNTVYLQKNSLKTEDTAVHYCAVQRSHASDYNYWCQGTQVTVSS | low polyreactivity
27 | QVQLQESGGGLVQAGGSLRLSCAASGNISPQLYMGWYRQAQGKEREFVAAIAEGSTTYYAESVKGRFTISRDDAKNTVYLQINSLKSEDTAVYYCAARYENAESFYYWGQGSQVTVSS | high polyreactivity
28 | QVQLQESGGGLVQAGGSLRLSCAASGNISQVGVMGWYRQAPGKERELVATINFGGSSYYADSVKGRFTISRDNAKITVYLQMNSLKPEDTAVSYCNAKAYVWYLYDEFGYWGQGTQVTVSS | low polyreactivity
29 | QVQLQESGGGLVQAGGSLRLSCAASGNISVTGFMGWYRQAPGKERELVASIGIGGTTYYADSVKGRFSISRDNAKNTVYLQMNSLKPEDTAVYYCAARYLYYAYSYWGQATQVTVSS | low polyreactivity
30 | QVQLQESGGGLVQAGGSLRLSCAASGNIVDADIMGWYRQAPGKERELVASITDGGSTNYADSVKGRFTISRDNAKNTVYLQMNSLKPEDTAVYYCAAIAYPDIPTYFDYDSEYFYWGQGTQVTVSS | low polyreactivity
31 | QVQLQESGGGLVQAGGSLRLSCAASGNIVVADIMGWYRQAPGKERELVASITDGGSTNYADNVKGRFTISRDNAKNTVYLQMNSLIPEDTAVYYCAANAFPDIPTYFVYDYDYFYWGQGTQVTVSG | high polyreactivity
32 | QVQLQESGGGLVQAGGSLRLSCAASGSIARYYDMGWYLQAPGKEREFVAGISGGAISYYADSVKGRLTISRDNAKNTVYLQMNSLKPEDTAVYYCAADTCVYQYHSYWGQGTQVTVSS | low polyreactivity
33 | QVQLQESGGGLVQAGGSLRLSCAASGSIFEELDMGWYRQAPGKEREFVAAIGTGSTTYYADSVKGRFTISRDNAKNTVYLQMNSLKPEDTAVYYCAVTYSVYLPFRYWGQGTQVTVSS | high polyreactivity
34 | QVQLQESGGGLVQAGGSLRLSCAASGSIFHLHIMCWYRQAPGKERESVAAISNGTSTYYADSVKGRFTICRDNAKNTVYLQMNSPKPDDTAVYYCAALFLVSKHHHYWGEGTQVTVSS | low polyreactivity
35 | QVQLQESGGGLVQAGGSLRLSCAASGSIIEELDMAWYRQAPGKEREFVAAIGTGSTTYYADSVKGRFTSSRDNAKNTVYLQMNSLKPEDTAVYYCAVTYSVYLPFRYWGQGTQVTVSS | high polyreactivity
36 | QVQLQESGGGLVQAGGSLRLSCAASGSISGPHVMGWSRQAPGKEREFVAAINVGANTYYADNVKGRFTISRDNAKNTVYLRMNSLKPEDTAVYYCAAVYYGDIGHEYWGQGTQVTVSC | low polyreactivity
37 | QVQLQESGGGLVQAGGSLRLSCAASGSISGPHVMGWYRQAPGKEREFVAAINVGANTYYADNVKGRFTISRDNAINTVYLQMNSLKTEDTAVYYCAAVYYGDIGHEYWGQGTQVTVSC | low polyreactivity
38 | QVQLQESGGGLVQAGGSLRLSCAASGSISGPHVMGWYRQAPGKVREFVAAINVGANTYYADNVKGRFTISRDNAKNTVYLQMNSLKPEDTAVYYCAAAYYGDIGHEYWGQGTQVTVSS | low polyreactivity
39 | QVQLQESGGGLVQAGGSLRLSCAASGSISHYIFMGWYRQAPGKQREFVAGIGYGGTTNYADSVKGRFTISRDNAKNTVYLQRNSLKPEDTGMYYCAAREATEFYLYYWGQGTQVTVSS | low polyreactivity
40 | QVQLQESGGGLVQAGGSLRLSCAASGSISILQSMGWYRQAPGKERELVAGINWGATTYYADSVKGRLTTSRDYAKNTVYLQLNSLKPEDTGVYYCAFQTYFTYPLLYWGQGTQVNVSS | low polyreactivity
41 | QVQLQESGGGLVQAGGSLRLSCAASGSISLGDNMGWYRQAPGKEREFVATISVGGITYYVDSVKGRFTISRDIAKNTVYLQMNSLKPEDTAVYYCAALDIYYFRYYYWGQGTQVTVSS | low polyreactivity
42 | QVQLQESGGGLVQAGGSLRLSCAASGSISRLDYMGWYRQASGKERELVAAIDNGSTTYYADSVKGRLTISRDNAKYTVYLQMNSLKPADTAVYFCAAVRGRGGTHAYWGQGTQVTVSG | low polyreactivity
43 | QVQLQESGGGLVQAGGSLRLSCAASGSISSRDAMGWYRQAPGKEREFVATIASGTTTYYADSVKGSFTISRDNAENTVYLQTYRLKPEDTAVYYCAAPTIQIYPFYYWGQGTQVNVSS | high polyreactivity
44 | QVQLQESGGGLVQAGGSLRLSCAASGSNFDTPTMGWYRQAPGKERELVASIAYDDNTYYADSVKGRFTISRYNAKNTVYLQMNSLKPGETAVYYCAVTDRIYYYFVYWGQGTRVTVSS | high polyreactivity
